Data on 5 molecules can be found in publication PMC5510646 (The Biochemical journal, 2017).

Substitutions are numbered along the chain they refer to. Names and notes keep the numbering of the source.

B1: Grem2 K66A/K69A (natural protein)
chain: RKNRPAGAIPSPYKDGSSNNSERWHHQIKEVLASSQEALVVTERAYLASDWCKTQPLRQTVSEEGCRSRTILNRFCYGQCNSFYIPRHVKKEEDSFQSCAFCKPQRVTSVIVELECPGLDPPFRIKKIQKVKHCRCMSVNLSDSDKQ
B2: Grem2 K151A/K153A (natural protein)
chain: B1 chain with A45K, A48K, K130A, K132A
B3: Recombinant mature BMP2 (ligand, UniProt P12643 283-396, looked up)
chain: QAKHKQRKRLKSSCKRHPLYVDFSDVGWNDWIVAPPGYHAFYCHGECPFPLADHLNSTNHAIVQTLVNSVNSKIPKACCVPTELSAISMLYLDENEKVVLKNYQDMVVEGCGCR
B4: Grem2 K111A/K112A (natural protein)
chain: B1 chain with A45K, A48K, K90A, K91A
B5: Grem2 K147A/K148A (natural protein)
chain: B1 chain with A45K, A48K, K126A, K127A

The series “SEC” deals with the molecule itself. As to the kind of experiment: SEC. A general note: Size exclusion chromatography separates by hydrodynamic size, large species first.
The target in the series “Grem2 K66A/K69A” is B1. The series can be described thus: SPR. On the technique in general: Surface plasmon resonance follows binding to a sensor surface in real time, without labels.
The series “Grem2 K111A/K112A” has as its target B4. The series can be described thus: SPR.
In a further series the target is T1, Gremlin-2 wild type (UniProt O88273 22-168).
T1 sequence: B1 chain with A45K, A48K
As to the kind of experiment: SPR.

The target of the series “Grem2 K147A/K148A” is B5. The series can be described thus: SPR.
Series [1] addresses T2, Grem2 K66A/K69A/K147A/K148A (UniProt O88273 22-168, K66A | K69A | K147A | K148A).
T2 sequence: B1 chain with K126A, K127A
As to the kind of experiment: SPR.

In series [2] the target is T3, Grem2 K111A/K112A/K151A/K153A (UniProt O88273 22-168, K111A | K112A | K151A | K153A).
T3 sequence: B1 chain with A45K, A48K, K90A, K91A, K130A, K132A
As to the kind of experiment: SPR.

In series [3] the target is T4, Grem2 K147A/K148A/K151A/K153A (UniProt O88273 22-168, K147A | K148A | K151A | K153A).
T4 sequence: B1 chain with A45K, A48K, K126A, K127A, K130A, K132A
The series can be described thus: SPR.

The series “Grem2 K151A/K153A” addresses B2. The series can be described thus: SPR.

For orientation: stoichiometry N means the number of molecules, sites or subunits per partner or assembly. As to B1, the “stoichiometry N” value in the series “SEC” was determined as 2.
The same measure, in the same setting: to B2 belongs 2.
Broadly, the Kd is the equilibrium constant for the complex coming apart. Low readings indicate a tighter complex, high ones a looser complex. As for B3, the Kd stood at 2.4 nM in the series with Grem2 K66A/K69A; 1.77 nM with Grem2 K111A/K112A; 1.42 nM with Gremlin-2 wild type; 1.98 nM with Grem2 K147A/K148A; 5.66 nM in series [1]; 2.11 nM in series [2]. In addition, the Kd amounted to 4.4 nM in series [3] and 1.3 nM with Grem2 K151A/K153A.
Consider B4, for which the “stoichiometry N” value in “SEC” amounted to 2.
In the case of B5, the “stoichiometry N” value in the series “SEC” amounted to 2.
